# Assay results published in the Human Domainome abundance scans (Beltran et al. 2025).
# ± gives the uncertainty stated by the source.
# B1: CD2-associated protein, residues 271 to 331; numbered along this chain, Q9Y5K6 (parent)
# chain: KEYCRTLFAYEGTNEDELTFKEGEIIHLISKETGEAGWWRGELNGKEGVFPDNFAVQINEL
# Variants of: B1
# Assay: abundance fitness (aPCA) (normalised: wild type 0, dead -1); higher = more abundant; growth selection in yeast, the domain comes from the species named
# Conditions: Homo sapiens
row,Variant,abundance fitness
1,KEYCRTLFAYEGTNEDELTFKEGEIIHLISKDTGEAGWWRGELNGKEGVFPDNFAVQINEL [E32D],-0.003 ± 0.062
2,KEYCRTLFAYEGTNEDELTFKEGEIIHLISKETGEAGWWRGELNGKEGVFPDNFAVQINEH [L61H],0.009 ± 0.32
3,KEYCRTLFAYEGTNEDELTFKWGEIIHLISKETGEAGWWRGELNGKEGVFPDNFAVQINEL [E22W],-1.13 ± 0.45
4,KEYCRTLFAYEGTNEDELTFKPGEIIHLISKETGEAGWWRGELNGKEGVFPDNFAVQINEL [E22P],-0.061 ± 0.078
5,KEYCRTLFAYEGTNEDELTFKKGEIIHLISKETGEAGWWRGELNGKEGVFPDNFAVQINEL [E22K],0.116 ± 0.075
6,KEYCRTLFAYEGTNEDELTFMEGEIIHLISKETGEAGWWRGELNGKEGVFPDNFAVQINEL [K21M],-0.202 ± 0.06
7,KEYCRTLFAYEGTNEDELTFVEGEIIHLISKETGEAGWWRGELNGKEGVFPDNFAVQINEL [K21V],-0.127 ± 0.048
8,KEYCRTLFAYEGTNEDELTFTEGEIIHLISKETGEAGWWRGELNGKEGVFPDNFAVQINEL [K21T],-0.076 ± 0.072
9,KEYCRTLFAYEGTNEDELTFLEGEIIHLISKETGEAGWWRGELNGKEGVFPDNFAVQINEL [K21L],-0.203 ± 0.057
10,KEYCRTLFAYEGTNEDELTFKEGEIIHLISKETGEAGWWRGELNGKEFVFPDNFAVQINEL [G48F],-1.05 ± 0.27
11,KEYCRTLFAYEGTNEDELTFKEGEIIHLISKETGEAGVWRGELNGKEGVFPDNFAVQINEL [W38V],-0.249 ± 0.069
12,KEYCRTLFAYEGTNEDELTFKEGEIIHLISKETGEAGFWRGELNGKEGVFPDNFAVQINEL [W38F],-0.145 ± 0.12
13,KEYCRPLFAYEGTNEDELTFKEGEIIHLISKETGEAGWWRGELNGKEGVFPDNFAVQINEL [T6P],-0.605 ± 0.24
14,KEYCRTLFAYDGTNEDELTFKEGEIIHLISKETGEAGWWRGELNGKEGVFPDNFAVQINEL [E11D],-0.122 ± 0.13
15,KEYCRTLFAYQGTNEDELTFKEGEIIHLISKETGEAGWWRGELNGKEGVFPDNFAVQINEL [E11Q],-0.4 ± 0.2
16,KEYCRTLFAYKGTNEDELTFKEGEIIHLISKETGEAGWWRGELNGKEGVFPDNFAVQINEL [E11K],-0.095 ± 0.093
17,KEYCRTLFAYEGTNEDELTFKEGEIIHLISVETGEAGWWRGELNGKEGVFPDNFAVQINEL [K31V],-0.313 ± 0.073
18,KEYCRTLFAYEGTNEDELTFKEGEIIHLISKETGEAGWWRGELNGKEGVFPDNFAYQINEL [V56Y],-0.409 ± 0.16
19,KEYCRTLFAYEGTNEDELTFKEGEIIHLISKETGEAGWWRGELNGKEGVFPDNFAFQINEL [V56F],-0.456 ± 0.12
20,KEYCRTLFAYEGTNEDELTFKEGEIIHLISKETGEAGWWRGEYNGKEGVFPDNFAVQINEL [L43Y],-0.294 ± 0.13
21,KEYCRTLFAYEGTNEDELTFKEGEIIHLISKETGEAGWWRGEGNGKEGVFPDNFAVQINEL [L43G],-0.766 ± 0.13
22,KEYCRTLFAYEGTNEDELTFKEGEIIHLISKETGEAGWWRGEDNGKEGVFPDNFAVQINEL [L43D],-0.458 ± 0.18

row,Variant,abundance fitness
1,KEYCRTLFAYEGTNEDELTFKEGEIIHLISKETGEAGWWRGEHNGKEGVFPDNFAVQINEL [L43H],-0.522 ± 0.25
2,KEYCRTLFAYEGANEDELTFKEGEIIHLISKETGEAGWWRGELNGKEGVFPDNFAVQINEL [T13A],0.066 ± 0.063
3,KEYCFTLFAYEGTNEDELTFKEGEIIHLISKETGEAGWWRGELNGKEGVFPDNFAVQINEL [R5F],-0.487 ± 0.083
4,KEYCGTLFAYEGTNEDELTFKEGEIIHLISKETGEAGWWRGELNGKEGVFPDNFAVQINEL [R5G],-0.868 ± 0.14
5,KNYCRTLFAYEGTNEDELTFKEGEIIHLISKETGEAGWWRGELNGKEGVFPDNFAVQINEL [E2N],0.002 ± 0.12
6,KAYCRTLFAYEGTNEDELTFKEGEIIHLISKETGEAGWWRGELNGKEGVFPDNFAVQINEL [E2A],-0.022 ± 0.068
7,KEYCRTLFAYEGTNEDELTFKEGEIIPLISKETGEAGWWRGELNGKEGVFPDNFAVQINEL [H27P],-0.428 ± 0.12
8,KEYCRTLFAYEGTNEDELTFKEGEIIALISKETGEAGWWRGELNGKEGVFPDNFAVQINEL [H27A],-0.005 ± 0.059
9,KEYCRTLFAYEGTNEDELTFKEGEIIHLKSKETGEAGWWRGELNGKEGVFPDNFAVQINEL [I29K],-0.26 ± 0.079
10,KEYCRTLFAYEGTNEDELTFKEGEIIHLILKETGEAGWWRGELNGKEGVFPDNFAVQINEL [S30L],-0.859 ± 0.091
11,KEYCRTLFAYEGTNEDELTFKEGEIIHLISKETGEAGWWRGELNGKEGVFPDWFAVQINEL [N53W],-0.355 ± 0.14
12,KEYCRTLFAYEGTNEDELTFKEGEIIHLISKETGEAGWWRGELNGKEGGFPDNFAVQINEL [V49G],-0.628 ± 0.053
13,KEYCRTLFAYEGTNEDELTFKEGEIIHLISKETGEAGWWRGELNGKEGVFPDNFCVQINEL [A55C],-0.058 ± 0.096
14,KEYCRTLFAYEGTNEDELTFKEGEIIHLISKETGEAGWWRGELNGKEGVFPDNFMVQINEL [A55M],-0.886 ± 0.2
15,KEYCRTLFAYEGTNEDELTFKEGEIIHLISKETGEAGWWRGELNGKEGVFPDNFRVQINEL [A55R],-1.07 ± 0.17
16,KEYCRTLFAYEGTNEDELTFKEGEIIHLISKETGEAGWWRGELNGKEGVFPDNFAVQINHL [E60H],0.13 ± 0.31
17,KEYCRTLFAYEGTNEDELTFKEGEIIHLISKETGEAGWWRGELNGKEGVFPDNFAVQINML [E60M],-0.42 ± 0.15
18,KEYCRTLFAYEGTNEDELTFKEGEIIHLISKETGEAGWWRGELNGKEGVFPDNFAVQINVL [E60V],-0.291 ± 0.12
19,KEYCRTLFAYEGTNEDELTFKEGEIIHLISKETGEAGWWRGELNGKEGVFPDNFAVQINCL [E60C],-0.127 ± 0.12
20,KEYCRTLFAYEGTNEDELTFKEGEIIHLISKETGEAGWWRGELNGEEGVFPDNFAVQINEL [K46E],-0.348 ± 0.13
21,KEYCRTLFAYEGTNEDELTFKEGEIIHLISKETGEAGWWRGELNGGEGVFPDNFAVQINEL [K46G],-0.924 ± 0.24
22,KEYCRTLFAYEGTNEDELLFKEGEIIHLISKETGEAGWWRGELNGKEGVFPDNFAVQINEL [T19L],-0.814 ± 0.11
